No end group written: not given here.
Tests used:
mouse serum albumin = target: T1, mouse serum albumin (mouse, UniProt P07724 25-608); assay: isothermal titration calorimetry, MSA injected into ABD-Dox in PBS at 37 C, independent binding site model
T1 construct: also called MSA

human serum albumin = target: T2, human serum albumin (human, UniProt P02768 25-609); assay: isothermal titration calorimetry, HSA injected into ABD-Dox in PBS at 37 C, independent binding site model
T2 construct: also called HSA; HAS

T1 sequence (P07724 25-608 limits assumed): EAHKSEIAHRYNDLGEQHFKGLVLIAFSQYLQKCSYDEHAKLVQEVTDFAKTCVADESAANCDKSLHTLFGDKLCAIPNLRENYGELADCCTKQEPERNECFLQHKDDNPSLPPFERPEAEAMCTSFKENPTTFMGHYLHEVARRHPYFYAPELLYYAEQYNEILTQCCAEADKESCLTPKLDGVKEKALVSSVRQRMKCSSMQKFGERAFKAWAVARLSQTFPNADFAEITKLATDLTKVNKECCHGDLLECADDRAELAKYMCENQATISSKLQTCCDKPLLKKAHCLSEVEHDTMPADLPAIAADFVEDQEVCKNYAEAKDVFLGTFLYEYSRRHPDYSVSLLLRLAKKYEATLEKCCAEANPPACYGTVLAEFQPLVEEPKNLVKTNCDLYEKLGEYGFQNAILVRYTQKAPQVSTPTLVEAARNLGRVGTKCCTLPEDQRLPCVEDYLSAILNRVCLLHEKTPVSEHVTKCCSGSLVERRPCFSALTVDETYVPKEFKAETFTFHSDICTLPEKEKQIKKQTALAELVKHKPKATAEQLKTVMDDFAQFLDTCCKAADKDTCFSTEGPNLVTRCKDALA

B1: ABD-Dox (ABD-(CGG)4-Dox with 1 and 2 conjugated Dox molecules) (peptide)
chain: GLAEAKVLANRELDKYGVSDYYKNLINNAKTVEGVKALIDEILAALPCGGCGGCGGCGG
modifications: also: 1-2 doxorubicin via EMCH (maleimide, hydrazone) on Cys of C-terminal (CGG)4
notes: Product of sortase A cleavage of KEKE-ELP160-srt-ABD-(CGG)4-Dox; also called AlBiPeD
B1 was tested, and the Kd (mouse serum albumin) was 0.0738 µM, the ΔH (mouse serum albumin) was -18.6 kJ/mol and the ΔS (mouse serum albumin) was 76.6 Jmol^-1K^-1. It also gave a Kd (human serum albumin) of 0.125 µM, a ΔH (human serum albumin) of -28.1 kJ/mol and a ΔS (human serum albumin) of 41.5 Jmol^-1K^-1.
